Experiment [1] concerns the target growth-associated protein GAP-43 (mouse (endogenous in N1E-115)) (UniProt P06837). The experiment is described as follows: cross-linking + co-IP; cells lysed in 1% NP-40 substitute buffer first; 1 mM DSP added to the low-speed supernatant (15 min, room temperature); glycine and SDS added; 100,000 × g supernatant; monoclonal anti-GAP-43; two-dimensional gel; spots counted, calmodulin cpm divided by 9/4.

Experiment [2] has the same target. In words: cross-linking + co-IP; 1 mM DSP added to living [35S]-labeled differentiated N1E-115 cells (15 min, room temperature, KRH); lysis in SDS, then NP-40 lysis buffer; 100,000 × g supernatant; monoclonal anti-GAP-43 (clone 91E12) and protein G plus agarose; crosslinks cleaved; two-dimensional gel, fluorography; spots cut out and counted, calmodulin cpm divided by 9/4.

Data on 1 substance can be found in PMC2635752.

UniProt P06837, sequence (P06837 whole entry): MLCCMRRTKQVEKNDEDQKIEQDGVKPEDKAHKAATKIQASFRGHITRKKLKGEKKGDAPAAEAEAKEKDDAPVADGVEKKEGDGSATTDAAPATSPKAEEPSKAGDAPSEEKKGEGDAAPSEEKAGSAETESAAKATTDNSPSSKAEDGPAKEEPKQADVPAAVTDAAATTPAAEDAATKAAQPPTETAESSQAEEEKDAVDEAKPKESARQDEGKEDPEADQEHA

For the substance “calmodulin (from UniProt P0DP26 1-149) (natural protein)”, in experiment [1], the calmodulin as percent of the GAP-43 in the immunoprecipitate came out at 39% and the radioactivity of calmodulin in the anti-GAP-43 immunoprecipitate (divided by 9/4) stood at 643 cpm. In experiment [2], the calmodulin as percent of the GAP-43 in the immunoprecipitate was 14%, the percent of the total GAP-43 crosslinked to calmodulin was determined as 25% and the radioactivity of calmodulin in the anti-GAP-43 immunoprecipitate (divided by 9/4) was 278 cpm.
